Molecular target: 253BH10 trispecific protein
Experiment: affinity measurement, method not stated

Sequence of 253BH10 trispecific protein (chain, as listed by the source limits assumed, form in doubt): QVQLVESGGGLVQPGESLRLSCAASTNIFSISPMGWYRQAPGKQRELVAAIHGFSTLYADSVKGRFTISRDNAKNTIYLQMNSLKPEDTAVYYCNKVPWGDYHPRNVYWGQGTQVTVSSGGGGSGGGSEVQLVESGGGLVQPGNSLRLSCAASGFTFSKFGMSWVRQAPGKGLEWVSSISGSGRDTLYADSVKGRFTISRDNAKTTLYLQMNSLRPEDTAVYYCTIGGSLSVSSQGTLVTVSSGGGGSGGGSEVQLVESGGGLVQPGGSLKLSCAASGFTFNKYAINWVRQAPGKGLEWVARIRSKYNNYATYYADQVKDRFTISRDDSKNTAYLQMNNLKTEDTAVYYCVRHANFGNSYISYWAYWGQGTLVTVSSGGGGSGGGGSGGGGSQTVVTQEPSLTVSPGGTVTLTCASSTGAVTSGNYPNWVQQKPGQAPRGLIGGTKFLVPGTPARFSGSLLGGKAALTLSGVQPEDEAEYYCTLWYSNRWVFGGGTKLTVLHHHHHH

Kd: 27.7 nM
B1: human BCMA protein (receptor)
chain: MLQMAGQCSQNEYFDSLLHACIPCQLRCSSNTPPLTCQRYCNASVTNSVKGTNA

Reference: patent US20240254250A1 (HARPOON THERAPEUTICS, published 2024)
